Residue numbers refer to the chain shown, from its start. Numbers in names are those of the source.

B1: gankyrin-His6x (wild-type gankyrin) (natural protein)
chain: MEGCVSNLMVCNLAYSGKLEELKESILADKSLATRTDQDSRTALHWACSAGHTEIVEFLLQLGVPVNDKDDAGWSPLHIAASAGRDEIVKALLGKGAQVNAVNQNGCTPLHYAASKNRHEIAVMLLEGGANPDAKDHYEATAMHRAAAKGNLKMIHILLYYKASTNIQDTEGNTPLHLACDEERVEEAKLLVSQGASIYIENKEEKTPLQVAKGGLGLILKR
B2: gankyrin-His6x R41A/K116A (natural protein)
chain: B1 chain with R41A, K116A
B3: gankyrin E182A (natural protein)
chain: B1 chain with E182A
B4: gankyrin K116A (natural protein)
chain: B1 chain with K116A
B5: gankyrin-His6x D39A/D71A (natural protein)
chain: B1 chain with D39A, D71A
B6: gankyrin-His6x R41A (natural protein)
chain: B1 chain with R41A
B7: Grafted FtsH-S6 ATPase, His6x-tagged (wild-type) (other)
chain: MLTEDQIKTTFADVAGCDEAKEEVAELVEYLREPSRFQKLGGKIPKGVLMVGPPGTGKTLLAKAIAGEAKVPFFTISGSDFVEMFVGVGASRVRDMFEQAKKAAPCIIFIDEIDAVGRQRGAGLGGGHDEREQTLNQMLVEMDGFEGNEGIIVIAATNRPDVLDPALLRPGRFDRQVVVGLPDRRQKRLIFSTITSKMNLSEEVDLEDYVARPDKISGADINSICQESGMLAVRENRYIVLAKDFEKAYKTVIKKDEQEHEFYK

Holding throughout (assay): ITC
Background: Isothermal titration calorimetry measures the heat released or taken up as one component is titrated into another.

Test [1] deals with FtsH-S6 ATPase R338A/R342A (ITC protein) (Escherichia coli | , UniProt P43686 337-418, R338A | R342A).
In test [2] the target is FtsH-S6 ATPase R342A (ITC protein) (Escherichia coli | , UniProt P43686 337-418, R342A).
Test [3] deals with FtsH-S6 ATPase K397E (ITC protein) (Escherichia coli | , UniProt P43686 337-418, K397E).
For test [4], the target named is FtsH-S6 ATPase R338A/R339A/R342A (ITC protein) (Escherichia coli | , UniProt P43686 337-418, R338A | R339A | R342A).
In test [5] the target is FtsH-S6 ATPase E356A/E357A (ITC protein) (Escherichia coli | , E356A | E357A).
Test [6] concerns the target B7.
In test [7] the target is B1.
Test [8] addresses B4.
The target of test [9] is B2.
The target of test [10] is B3.
Test [11] deals with B6.
Test [12] deals with B5.

With B1, the equilibrium dissociation constant (Kd) in test [1] was 2550 nM; in test [2], 217 nM; in test [3], 95.2 nM; in test [4] it was 7470 nM; in test [5], 71.8 nM. Also, the dH was -6.1 kcal/mol in test [1]; -22 kcal/mol in [2]; -25.6 kcal/mol in [3]; -2.2 kcal/mol in [4]; -27.3 kcal/mol in test [5]; -28.7 kcal/mol in test [6].

In turn, B2 had a dH in test [6] of -4.9 kcal/mol.

In test [6], B3 returned a dH of -28.2 kcal/mol.

The molecule B4 showed a dH in [6] of -24 kcal/mol.

As to B5, in [6], the dH is -25 kcal/mol.

On to B6, for which the dH in test [6] is -17.1 kcal/mol.

For B7, the Kd worked out at 67.3 nM in test [7]; 71.3 nM in [8]; 3630 nM in test [9]; 141 nM in [10]; 313 nM in [11]; 93 nM in test [12].

For orientation: Kd means the concentration at which binding is half-saturated. A low value points to a tighter complex.

These data come from paper PMC4230329 (Biochemistry, 2014).
